Assay results taken from patent US20230331840A1 (published 2023).

Experiments:
[1] = target: T1, Human CD22 extracellular segment conjugated His label (human, UniProt P20273 20-687); experiment: ELISA
[2] = target: T1, Human CD22 extracellular segment …; experiment: BLI (Fortebio)
K562-CD22 = K562-CD22 (UniProt P20273 20-847); experiment: FACS binding

EC50 [1] [nM] | Kd [2] [nM] | EC50 (K562-CD22) [nM] | Binder
0.145 | 0.92 |  | CD22 antibody FC2-153 (antibody, V domains shown) VH: QVQLQQSGAELMKPGASVKISCKATGYTFSSYWIEWVKQRPGHGLEWIGEILPGSGSTNYNEKFKGKATFTADTSSNTAYMQLSSLTSEDSAVYYCARWGQLGLFYAMDYWGQGTSVTVSS VL: DIQMTQSPASLSASVGETVTITCRASENIYSYLAWYQQKQGKSPQLLVYNAKTLAEGVPSRFSGSGSGTQFSLKINSLQPEDFGSYYCQHHYGSPLTFGAGTKLELKR
0.154 | 0.569 |  | CD22 antibody FC2-070 (antibody, V domains shown) VH: QVQLQQPGAELVKPGTSVKLSCKASGYNFTSYWINWVKLRPGQGLEWIGDIYPGSGNTNYNEKFKSKATLTVDTSSTTAYMQLSSLASEDSALYYCARRGYLDYWGQGTTLTVSS VL: DIQMTQSPASLSASVGETVTITCRASGNIHNYLAWYQQKQGKSPQLLVYNAKTLADGVPSRFSGSGSGTQYSLTINSLQPEDFGSYYCQHFWSTPLTFGAGTKLELKR
0.629 | 2.73 |  | CD22 antibody FC2-117 (antibody, V domains shown) VH: DVQLQESGPGLVKPSQSLSLTCSVTGYSITSGYYWNWIRQFPGNKLEWMGYISYDGSNNYNPSLKNRISITRDTSKNQFFLKLNSVTTEDTATYYCTKGGYGYYFDYWGQGTTLTVSS VL: DIQMTQSPASLSASVGETVTITCRASGNIHNYLAWYQQKQGKSPQLLVYNAKTLADGVPSRFSGSGSGTQYSLKINSLQPEDFGSYYCQHFWSTPPTFGGGTKLEIKR
0.457 | 7.08 |  | CD22 antibody FC2-203 (antibody, V domains shown) VH: QVQLQQPGAELVRPGASVKLSCKASGYTFSSYWINWVKQRPGQGLEWIGNIYPSDSYTNYNQKFKDKATLTVDKSSSTAYMQLSSPTSEDSAVYYCTREGHYYGSFGAMDYWGQGTSVTVSS VL: DVQITQSPSYLAASPGETITINCRASKTISKYLAWYQEKPGKTNKLLIYSGSTLQSGIPSRFSGSGSGTDFTLTISSLEPEDFAMYYCQQHNEYPWTFGGGTKLEIKR
0.096 | 0.0722 |  | CD22 antibody FC2-201 (antibody, V domains shown) VH: KVQLQQSGAGLVKPGASVKLSCKASGYTFTDSILHWLMQRSGQGLEWIGWFYPGSGSIKYNEKFKDKATLTADKSSSTVYMELSRLTSEDSAFYFCARHEDGYDGFAYWGQGTLVTVSA VL: ENVLTQSPAIMSASLGEKVTMSCRASSSVNYIFWYQQKSDASPKLWIYYTSNLAPGVPARFSGSGSGNSYSLTISSMEGEDAATYYCQQFTSSPFTFGSGTKLEIKR
 |  | 0.632 | RFB-4 (antibody, V domains shown) VH: EVQLVESGGGLVKPGGSLKLSCAASGFAFSIYDMSWVRQTPEKRLEWVAYISSGGGTTYYPDTVKGRFTISRDNAKNTLYLQMSSLKSEDTAMYYCARHSGYGSSYGVLFAYWGQGTLVTVSA VL: DIQMTQTTSSLSASLGDRVTISCRASQDISNYLNWYQQKPDGTVKLLIYYTSILHSGVPSRFSGSGSGTDYSLTISNLEQEDFATYFCQQGNTLPWTFGGGTKLEIK
